Test results taken from the supplement of paper PMC7877785.
± gives the uncertainty stated by the source.

Assay: self-splicing fitness, log relative to wild type (ln ratio); higher = more splicing; Tetrahymena group I intron in knt gene, E. coli kanamycin selection, DiMSum; sequences stand for … in CUCUCU…GGAGGGAAAAGUUAUCAGGCAUGCACCUGGUAGCUAGUCUUUAAACCAAUAGAUUGCAUCGGUUUAAAAGGCAAGACCGUCAAAUUGCGGGAAAGGGGUCAACAGCCGUUCAGUACCAAGUCUCAGGGGAAACUUUGAGAUGGCCUUGCAAAGGGUAUGGUAAUAAGCUGACGGACAUGGUCCUAACCACGCAGCCAAGUCCUAAGUCAACAGAUCUUCUGUUGAUAUGGAUGCAGUUCACAGACUAAAUGUCGGUCGGGGAAGAUGUAUUCUUCUCAUAAGAUAUAGUCGGACCUCUCCUUAAUGGGAGCUAGCGGAUGAAGUGAUGCAACACUGGAGCCGCUGGGAACUAAUUUGUAUGCGAAAGUAUAUUGAUUAGUUUUGGAGUACUCGUGGUCG
Outline: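 DiMSum derived fitness as the error-weighted combination of fold changes across replicates, kanamycin versus no kanamycin, normalised to wild type. E. coli BL21(DE3) held the library, which randomised all eight P1ex-region intron nucleotides within the knt kanamycin-resistance gene on pET-22b(+). Six replicate transformations grew overnight at 37°C or 30°C on LB agar with or without 25 μg/mL kanamycin, also containing 100 μg/mL carbenicillin, 50 μM IPTG and 0.2% rhamnose, and pooled colonies were amplicon-sequenced on an Illumina HiSeq 2500.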

Sequence	self-splicing fitness (ln) (30 °C)	self-splicing fitness (ln) (37 °C)
ACAAAGCAAUAUUACGACGA	-0.436 ± 0.063	-0.207 ± 0.062
ACAAAGCAAUAUUACGAUAA	-1.38 ± 0.086	-1 ± 0.1
ACAAAGCAAUAUUACGAUGG	-1.44 ± 0.08	-0.402 ± 0.1
ACAAAGCAAUAUUACGCAGG	-1.47 ± 0.064	-1.21 ± 0.08
ACAAAGCAAUAUUACGCCAG	-1.94 ± 0.13	-1.11 ± 0.16
ACAAAGCAAUAUUACGCCGG	-0.52 ± 0.065	-0.282 ± 0.083
ACAAAGCAAUAUUACGCUUG	-1.62 ± 0.057	-0.984 ± 0.079
ACAAAGCAAUAUUACGGACA	-1.29 ± 0.13	-0.782 ± 0.11
ACAAAGCAAUAUUACGGACG	-0.851 ± 0.045	-0.124 ± 0.065
ACAAAGCAAUAUUACGGGUU	-2.54 ± 0.087	-1.23 ± 0.09
ACAAAGCAAUAUUACGGUAC	-3.33 ± 0.13	-2.3 ± 0.15
ACAAAGCAAUAUUACGGUAU	-3.56 ± 0.13	-1.35 ± 0.099
ACAAAGCAAUAUUACGGUCG	-1.24 ± 0.055	-0.228 ± 0.08
ACAAAGCAAUAUUACGGUGU	-3.29 ± 0.14	-2.81 ± 0.15
ACAAAGCAAUAUUACGUCCU	-0.488 ± 0.07	-0.399 ± 0.08
ACACAGCAAUAUUACGAAAA	-3.2 ± 0.19	-3 ± 0.19
ACACAGCAAUAUUACGAAAC	-3.02 ± 0.23	-1.82 ± 0.22
ACACAGCAAUAUUACGACUU	-0.131 ± 0.043	0.0165 ± 0.056
ACACAGCAAUAUUACGAGAA	-3.53 ± 0.37	-2.54 ± 0.24
ACACAGCAAUAUUACGAUGA	-0.664 ± 0.048	-0.444 ± 0.057
ACACAGCAAUAUUACGAUUG	-2.22 ± 0.084	-0.711 ± 0.09

Sequence	self-splicing fitness (ln) (30 °C)	self-splicing fitness (ln) (37 °C)
ACACAGCAAUAUUACGCAAA	-3.2 ± 0.11	-1.85 ± 0.092
ACACAGCAAUAUUACGCCAA	-2.36 ± 0.11	-2.54 ± 0.14
ACACAGCAAUAUUACGCCAU	-3.18 ± 0.21	-1.85 ± 0.15
ACACAGCAAUAUUACGCCGG	-1.36 ± 0.09	-0.466 ± 0.11
ACACAGCAAUAUUACGCGCA	-0.103 ± 0.064	0.225 ± 0.079
ACACAGCAAUAUUACGCUCC	-1.47 ± 0.078	-0.566 ± 0.1
ACACAGCAAUAUUACGCUUU	-2.75 ± 0.14	-1.51 ± 0.098
ACACAGCAAUAUUACGGCAC	-1.6 ± 0.066	-0.725 ± 0.084
ACACAGCAAUAUUACGGGUC	-4.34 ± 0.21	-2.17 ± 0.13
ACACAGCAAUAUUACGUAAG	-2.06 ± 0.062	-0.736 ± 0.069
ACACAGCAAUAUUACGUAGG	-2.48 ± 0.087	-1.64 ± 0.09
ACACAGCAAUAUUACGUGUU	-3.16 ± 0.073	-3.62 ± 0.16
ACACAGCAAUAUUACGUUAG	-3.46 ± 0.094	-2.44 ± 0.1
ACACAGCAAUAUUACGUUGG	-3 ± 0.089	-1.2 ± 0.081
ACACAGCAAUAUUACGUUGU	-2.31 ± 0.09	-2.6 ± 0.14
ACAGAGCAAUAUUACGAACC		-1.67 ± 0.49
ACAGAGCAAUAUUACGAAUA	-3.45 ± 0.32	-2.2 ± 0.35
ACAGAGCAAUAUUACGACAG	-3.72 ± 0.31	-1.95 ± 0.2
ACAGAGCAAUAUUACGAUUA	-3.25 ± 0.23	-2.38 ± 0.26
ACAGAGCAAUAUUACGCAUG	-2.9 ± 0.12	-1.95 ± 0.13
ACAGAGCAAUAUUACGCCGG	-2.81 ± 0.25	-2.4 ± 0.33
